{"source": "patent US20050287527", "key": {"[1]": {"system": "GFNPRHL"}, "[2]": {"system": "GFSARHL"}, "[3]": {"system": "GLDPRHL"}, "[4]": {"system": "GPNPRHL"}, "[5]": {"system": "GVDPRHL"}}, "data": [{"substance": "human α-thrombin", "values": [{"measurement": "proteolytic cleavage of the peptide by thrombin", "setting": "[1]", "value": "proteolytically cleaved after the arginine residues in the presence of the human thrombin"}, {"measurement": "proteolytic cleavage of the peptide by thrombin", "setting": "[2]", "value": "proteolytically cleaved after the arginine residues in the presence of the human thrombin"}, {"measurement": "proteolytic cleavage of the peptide by thrombin", "setting": "[3]", "value": "proteolytically cleaved after the arginine residues in the presence of the human thrombin"}, {"measurement": "proteolytic cleavage of the peptide by thrombin", "setting": "[4]", "value": "proteolytically cleaved after the arginine residues in the presence of the human thrombin"}, {"measurement": "proteolytic cleavage of the peptide by thrombin", "setting": "[5]", "value": "proteolytically cleaved after the arginine residues in the presence of the human thrombin"}]}]}
